Experimental data as given in the Immune Epitope Database (IEDB).

Experiments:
HLA-A*03:01 [1] = assay: IEDB peptide-MHC binding, purified MHC/direct/fluorescence; filed as Kd, often an IC50 or EC50 that approximates it; ≥ and ≤ were set here for values at or beyond the usual limits of such assays
HLA-A*11:01 [2] = assay: as above
HLA-A*31:01 [3] = assay: IEDB peptide-MHC binding, purified MHC/competitive/fluorescence; filed as Kd, often an IC50 or EC50 that approximates it; ≥ and ≤ were set here for values at or beyond the usual limits of such assays
HLA-A*01:01 [4] = assay: as above
HLA-A*03:01 [5] = assay: as above; details: source organism: Salmonella enterica subsp. enterica serovar Typhi
HLA-A*01:01 [6] = assay: IEDB peptide-MHC binding, purified MHC/direct/fluorescence; filed as Kd, often an IC50 or EC50 that approximates it; ≥ and ≤ were set here for values at or beyond the usual limits of such assays
HLA-A*02:01 [7] = assay: as above
HLA-A*26:01 = assay: as above
HLA-A*31:01 [8] = assay: as above
HLA-A*69:01 = assay: as above
HLA-B*07:02 = assay: as above
HLA-B*08:01 = assay: as above
HLA-B*15:01 [9] = assay: as above; details: source organism: Giardia lamblia ATCC 50803
HLA-B*27:05 = assay: as above
HLA-B*40:01 = assay: as above
HLA-B*44:02 = assay: as above
HLA-B*58:01 [10] = assay: as above
HLA-B*15:01 [11] = assay: IEDB peptide-MHC binding, purified MHC/competitive/fluorescence; ≥ and ≤ were set here for values at or beyond the usual limits of such assays
HLA-A*02:01 [12] = assay: as above
HLA-A*24:03 = assay: IEDB peptide-MHC binding, purified MHC/competitive/fluorescence; filed as Kd, often an IC50 or EC50 that approximates it; ≥ and ≤ were set here for values at or beyond the usual limits of such assays
HLA-A*31:01 [13] = assay: IEDB peptide-MHC binding, purified MHC/competitive/radioactivity; filed as Kd, often an IC50 or EC50 that approximates it; ≥ and ≤ were set here for values at or beyond the usual limits of such assays; details: source organism: Dengue virus 2 Jamaica/1409/1983
HLA-B*57:01 = assay: as above; details: source organism: Dengue virus 2 Jamaica/1409/1983
HLA-B*58:01 [14] = assay: as above; details: source organism: Dengue virus 2 Jamaica/1409/1983
HLA-A*24:02 = assay: IEDB peptide-MHC binding, purified MHC/competitive/fluorescence; ≥ and ≤ were set here for values at or beyond the usual limits of such assays
HLA-A*11:01 [15] = assay: as above; details: source organism: Zaire ebolavirus
HLA-B*15:17 = assay: IEDB peptide-MHC binding, purified MHC/direct/fluorescence; filed as Kd, often an IC50 or EC50 that approximates it; ≥ and ≤ were set here for values at or beyond the usual limits of such assays
[16] = source organism: Burkholderia mallei
[17] = source organism: Giardia lamblia ATCC 50803
[18] = source organism: Vaccinia virus WR
[19] = source organism: Bacillus anthracis
[20] = source organism: Vibrio cholerae
[21] = source organism: Zaire ebolavirus
[22] = source organism: Brucella abortus 2308
[23] = source organism: Vaccinia virus Copenhagen
[24] = source organism: Marburg virus - Musoke, Kenya, 1980

For AQHAPDAAK, the Kd (HLA-A*03:01 [1]; [16]) was 2.12 µM, the Kd (HLA-A*11:01 [2]; [16]) was 0.0646 µM and the Kd (HLA-A*31:01 [3]; source organism: Burkholderia mallei SAVP1) was 0.172 µM.

In the case of ASDHFVETT, the Kd (HLA-A*01:01 [4]; source organism: Escherichia coli APEC O1) is reported as no less than 20 µM.

In the case of ATTFARFLY, the Kd (HLA-A*01:01 [4]; source organism: Salmonella enterica subsp. enterica serovar Typhi) is reported as 0.0193 µM and the Kd (HLA-A*03:01 [5]) is reported as 0.202 µM.

Work on EFFDTEPQL yielded a Kd (HLA-A*01:01 [6]; [17]) of no less than 20 µM, a Kd (HLA-A*02:01 [7]; [17]) of no less than 20 µM and a Kd (HLA-A*03:01 [1]; [17]) of no less than 20 µM. It also gave a Kd (HLA-A*11:01 [2]; [17]) of no less than 20 µM, a Kd (HLA-A*26:01; [17]) of no less than 20 µM and a Kd (HLA-A*31:01 [8]; [17]) of no less than 20 µM. It also gave a Kd (HLA-A*69:01; [17]) of no less than 20 µM, a Kd (HLA-B*07:02; [17]) of no less than 20 µM and a Kd (HLA-B*08:01; [17]) of no less than 20 µM. The Kd (HLA-B*15:01 [9]) was no less than 20 µM, the Kd (HLA-B*27:05; [17]) was no less than 20 µM and the Kd (HLA-B*40:01; [17]) was 2.77 µM. It also gave a Kd (HLA-B*44:02; [17]) of no less than 20 µM and a Kd (HLA-B*58:01 [10]; [17]) of no less than 20 µM.

FHKNMIKTY showed an IC50 (HLA-B*15:01 [11]; source organism: Vaccinia virus) of 21.8 µM.

In the case of FLVINRLGA, the IC50 (HLA-A*02:01 [12]; [18]) is reported as 0.795 µM and the IC50 (HLA-B*15:01 [11]; [18]) is reported as no less than 86.9 µM.

Sequence GLHATFMPK has a Kd (HLA-A*03:01 [1]; [19]) of 0.0372 µM, a Kd (HLA-A*11:01 [2]; [19]) of 0.0062 µM and a Kd (HLA-A*31:01 [3]; source organism: Listeria monocytogenes EGD-e) of 0.151 µM.

In the case of GWTETDSSF, the Kd (HLA-A*24:03; source organism: Influenza A virus (A/parrot/Ulster/73(H7N1))) is reported as 0.304 µM.

With HSSAAQRRGR the Kd (HLA-A*31:01 [13]) was 0.0241 µM, the Kd (HLA-B*57:01) was 0.0718 µM and the Kd (HLA-B*58:01 [14]) was 11.3 µM.

Sequence IHYAGWVSL has a Kd (HLA-A*01:01 [6]; [20]) of no less than 20 µM, a Kd (HLA-A*02:01 [7]; [20]) of no less than 20 µM and a Kd (HLA-A*03:01 [1]; [20]) of no less than 20 µM. The Kd (HLA-A*11:01 [2]; [20]) was no less than 20 µM, the Kd (HLA-A*26:01; [20]) was no less than 20 µM and the Kd (HLA-A*31:01 [8]; [20]) was no less than 20 µM. The Kd (HLA-A*69:01; [20]) was no less than 20 µM, the Kd (HLA-B*07:02; [20]) was 0.323 µM and the Kd (HLA-B*08:01; [20]) was no less than 20 µM. The Kd (HLA-B*27:05; [20]) was no less than 20 µM, the Kd (HLA-B*40:01; [20]) was no less than 20 µM and the Kd (HLA-B*44:02; [20]) was no less than 20 µM. It also gave a Kd (HLA-B*58:01 [10]; [20]) of no less than 20 µM.

For IQYPTAWQS, the IC50 (HLA-A*02:01 [12]; [21]) was 30.6 µM, the IC50 (HLA-A*24:02; [21]) was 33.5 µM and the IC50 (HLA-B*15:01 [11]; [21]) was 25.7 µM.

ISFQQTNAM was tested, and the IC50 (HLA-A*02:01 [12]; [21]) was 6.39 µM, the IC50 (HLA-A*11:01 [15]) was no less than 125 µM and the IC50 (HLA-A*24:02; [21]) was 9.81 µM. The IC50 (HLA-B*15:01 [11]; [21]) was 6.16 µM.

In the case of ITGLPPTEW, the Kd (HLA-B*15:17; [22]) is reported as 0.0023 µM and the Kd (HLA-B*58:01 [10]; [22]) is reported as 0.0244 µM.

In the case of KAIITPIVF, the IC50 (HLA-A*24:02; [23]) is reported as 11.1 µM and the IC50 (HLA-B*15:01 [11]; [23]) is reported as 15.7 µM.

Sequence KAVEKGKNW has a Kd (HLA-B*15:17; [24]) of 0.0177 µM and a Kd (HLA-B*58:01 [10]; [24]) of 0.0915 µM.

In the case of KFHQIEKEF, the Kd (HLA-A*24:03; source organism: Influenza A virus (A/swine/Hong Kong/81/1978(H3N2))) is reported as 0.0006 µM.
